{"source": "paper PMC12069552", "about": "“Root stem cell homeostasis in Arabidopsis involves cell-type specific transcription factor complexes” (EMBO Reports, 2025)", "binders": {"B1": {"name": "PLT3-mCherry (PLETHORA 3) (natural protein, Arabidopsis thaliana, UniProt Q52QU2 1-581, looked up)", "chain": "MMAPMTNWLTFSLSPMEMLRSSDQSQFVSYDASSAASSSPYLLDNFYGWSNQKPQEFFKEEAQLAAAASMADSTILTTFVDPQSHHSQNHIPKLEDFLGDSSSIVRYSDNSQTDTQDSSLTQIYDPRHHHNQTGFYSDHHDFKTMAGFQSAFSTNSGSEVDDSASIGRTHLAGDYLGHVVESSGPELGFHGGSTGALSLGVNVNNNTNHRNDNDNHYRGNNNGERINNNNNNDNEKTDSEKEKAVVAVETSDCSNKKIADTFGQRTSIYRGVTRHRWTGRYEAHLWDNSCRREGQARKGRQGGYDKEDKAARAYDLAALKYWNATATTNFPITNYSKEVEEMKHMTKQEFIASLRRKSSGFSRGASIYRGVTRHHQQGRWQARIGRVAGNKDLYLGTFATEEEAAEAYDIAAIKFRGINAVTNFEMNRYDVEAIMKSALPIGGAAKRLKLSLEAAASSEQKPILGHHQLHHFQQQQQQQQLQLQSSPNHSSINFALCPNSAVQSQQIIPCGIPFEAAALYHHHQQQQQHQQQQQQQNFFQHFPANAASDSTGSNNNSNVQGTMGLMAPNPAEFFLWPNQSY", "notes": "PLETHORA 3 (PLT3), APETALA2-type transcription factor of Arabidopsis thaliana; CDS and construct described in Burkart et al, 2022; FRET acceptor; construct XVE:PLT3-mCherry of Burkart et al, 2022; also called full-length PLT3; source: N. benthamiana abaxial epidermal leaf cells, transiently expressed (β-estradiol inducible), in cells"}}, "key": {"TPL-mVenus": {"target": "T1, TPL-mVenus (Arabidopsis thaliana, UniProt Q94AI7 1-1131)", "T1 construct": "TOPLESS (TPL) of Arabidopsis thaliana; the CDS amplified from cDNA; FRET donor; source: N. benthamiana abaxial epidermal leaf cells, transiently expressed (β-estradiol inducible), in cells", "T1 sequence (looked up)": "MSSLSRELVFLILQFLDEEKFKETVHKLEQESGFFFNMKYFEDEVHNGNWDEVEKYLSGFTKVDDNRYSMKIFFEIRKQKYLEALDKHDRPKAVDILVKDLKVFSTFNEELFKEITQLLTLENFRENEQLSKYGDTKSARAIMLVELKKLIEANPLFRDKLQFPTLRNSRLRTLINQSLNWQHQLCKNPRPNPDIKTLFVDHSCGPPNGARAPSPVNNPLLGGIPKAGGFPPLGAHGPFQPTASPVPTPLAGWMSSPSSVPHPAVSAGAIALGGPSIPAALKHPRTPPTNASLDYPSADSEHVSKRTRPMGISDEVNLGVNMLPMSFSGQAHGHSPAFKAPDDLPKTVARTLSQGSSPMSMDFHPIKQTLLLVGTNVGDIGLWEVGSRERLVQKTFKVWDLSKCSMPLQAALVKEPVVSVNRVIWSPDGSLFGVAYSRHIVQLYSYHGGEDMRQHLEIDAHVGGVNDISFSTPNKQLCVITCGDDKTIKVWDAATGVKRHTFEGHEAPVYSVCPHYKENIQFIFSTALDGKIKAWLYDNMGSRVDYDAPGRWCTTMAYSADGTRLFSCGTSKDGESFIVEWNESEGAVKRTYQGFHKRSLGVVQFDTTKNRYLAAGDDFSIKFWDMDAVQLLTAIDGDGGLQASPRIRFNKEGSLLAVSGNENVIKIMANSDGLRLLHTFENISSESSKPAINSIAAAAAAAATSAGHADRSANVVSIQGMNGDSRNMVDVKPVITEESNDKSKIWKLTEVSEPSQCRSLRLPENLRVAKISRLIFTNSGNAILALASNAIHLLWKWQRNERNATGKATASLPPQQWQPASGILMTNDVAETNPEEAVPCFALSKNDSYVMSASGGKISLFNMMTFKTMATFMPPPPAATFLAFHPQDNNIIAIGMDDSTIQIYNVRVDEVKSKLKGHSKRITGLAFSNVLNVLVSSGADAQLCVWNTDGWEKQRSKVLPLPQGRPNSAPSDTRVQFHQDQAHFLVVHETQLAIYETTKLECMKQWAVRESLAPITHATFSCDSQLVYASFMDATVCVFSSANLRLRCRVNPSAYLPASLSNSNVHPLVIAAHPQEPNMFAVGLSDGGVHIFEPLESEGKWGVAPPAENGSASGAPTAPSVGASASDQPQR", "test": "FRET or BRET; FRET-FLIM in nuclei of transiently expressing N. benthamiana epidermal leaf cells; mVenus fusion as donor, mCherry fusion as acceptor; 'binding' [%] is the amplitude of the FRET component (number of donor molecules undergoing FRET); binding cutoff 10%; a binding not significantly different from the negative control (mCherry-NLS) is regarded as no interaction", "conditions": "partners not purified"}, "[1]": {"target": "T2, WOX5-mV(N) BRAVO-mV(C) heterodimer (BiFC donor) (Arabidopsis thaliana, UniProt Q8H1D2 1-182; Q6R053 1-323)", "T2 construct": "WUSCHEL-RELATED HOMEOBOX 5 (WOX5) of Arabidopsis thaliana; the CDS, described in Burkart et al, 2022; BRAVO, R2R3-MYB transcription factor of Arabidopsis thaliana; the CDS amplified from cDNA; also called WOX5-mV(N) and BRAVO-mV(C); source: N. benthamiana leaf cells, transiently co-expressed, in cells", "T2 sequence (looked up) 1": "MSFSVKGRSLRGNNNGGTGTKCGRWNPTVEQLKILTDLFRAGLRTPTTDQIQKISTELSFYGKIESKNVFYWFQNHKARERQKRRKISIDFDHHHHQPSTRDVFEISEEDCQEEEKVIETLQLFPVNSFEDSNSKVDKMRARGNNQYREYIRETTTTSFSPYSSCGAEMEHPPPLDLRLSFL", "T2 sequence (looked up) 2": "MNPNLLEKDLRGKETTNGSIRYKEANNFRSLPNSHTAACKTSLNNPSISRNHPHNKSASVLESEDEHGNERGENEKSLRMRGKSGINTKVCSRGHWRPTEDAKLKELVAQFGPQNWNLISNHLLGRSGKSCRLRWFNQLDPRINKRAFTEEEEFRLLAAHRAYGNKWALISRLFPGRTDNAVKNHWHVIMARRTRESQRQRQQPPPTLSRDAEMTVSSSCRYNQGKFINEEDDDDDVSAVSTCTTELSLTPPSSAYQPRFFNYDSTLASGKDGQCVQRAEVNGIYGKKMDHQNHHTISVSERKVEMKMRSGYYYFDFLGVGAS", "test": "split reporter (BiFC, NanoBiT) + FRET or BRET; BiFC-FRET-FLIM in nuclei of N. benthamiana epidermal leaf cells; mVenus donor split into mV(N) and mV(C) on two proteins, third protein with mCherry as acceptor; 'binding' [%]; binding cutoff 10%", "conditions": "partners not purified"}, "[2]": {"target": "BES1D-mVenus (Arabidopsis thaliana) (UniProt Q9LN63)", "sequence (Q9LN63 whole entry, the tested form may be a part)": "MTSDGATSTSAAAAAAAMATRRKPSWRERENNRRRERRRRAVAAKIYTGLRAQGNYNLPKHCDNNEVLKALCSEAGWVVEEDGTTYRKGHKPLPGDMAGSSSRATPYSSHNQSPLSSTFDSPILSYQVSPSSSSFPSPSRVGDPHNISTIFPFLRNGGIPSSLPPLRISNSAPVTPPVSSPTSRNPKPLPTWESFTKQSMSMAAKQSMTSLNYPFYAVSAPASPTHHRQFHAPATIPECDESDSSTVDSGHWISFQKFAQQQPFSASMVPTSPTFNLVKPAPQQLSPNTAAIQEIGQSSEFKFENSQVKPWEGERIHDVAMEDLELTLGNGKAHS", "test": "FRET or BRET; FRET-FLIM in nuclei of transiently expressing N. benthamiana epidermal leaf cells; mVenus fusion as donor, mCherry fusion as acceptor; 'binding' [%] is the amplitude of the FRET component (number of donor molecules undergoing FRET); binding cutoff 10%; a binding not significantly different from the negative control (mCherry-NLS) is regarded as no interaction"}}, "data": [{"binder": "B1", "values": [{"measurement": "binding (FRET-FLIM, share of donor molecules undergoing FRET)", "setting": "TPL-mVenus", "value": "13.5 ± 4.3", "unit": "%"}, {"measurement": "binding (FRET-FLIM, share of donor molecules undergoing FRET)", "setting": "[1]", "value": "31.5 ± 8.5", "unit": "%"}, {"measurement": "binding (FRET-FLIM, share of donor molecules undergoing FRET)", "setting": "[2]", "value": 16.9, "unit": "%"}]}]}
